Laboratory results from US20150344570A1 (published 2015).

T1: FcγRIIb extracellular domain with C-terminal His tag (human, UniProt P31994 43-217)
T1 construct: extracellular domain; also called FcgRIIb; 2b; not shown: His tag at the C terminus
T1 sequence (looked up): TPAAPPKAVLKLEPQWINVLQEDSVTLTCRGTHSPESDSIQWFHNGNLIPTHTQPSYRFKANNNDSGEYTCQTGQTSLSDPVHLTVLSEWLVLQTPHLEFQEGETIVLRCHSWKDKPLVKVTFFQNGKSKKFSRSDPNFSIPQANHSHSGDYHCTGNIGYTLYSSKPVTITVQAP


Experiments:
[1] = biological target: T2, FcγRIIIa extracellular domain with C-terminal His tag (human, UniProt P08637 17-208); test: SPR (Biacore); He/Con_3a divided by He/Con_2b (FcγRIIb)
T2 construct: extracellular domain; also called FcgRIIIa; 3a; not shown: His tag at the C terminus
T2 sequence (P08637 17-208): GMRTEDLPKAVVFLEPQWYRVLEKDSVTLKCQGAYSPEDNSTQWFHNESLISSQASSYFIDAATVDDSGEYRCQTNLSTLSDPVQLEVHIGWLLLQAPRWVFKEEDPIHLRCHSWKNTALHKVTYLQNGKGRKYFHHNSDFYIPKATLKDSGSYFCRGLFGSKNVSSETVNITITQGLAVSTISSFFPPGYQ

[2] = biological target: T1, FcγRIIb extracellular domain with …; test: SPR (Biacore), FcγR as analyte over captured antibody; GpH7-A5/GpH7-B3/GpL16-k0 = 100
Description: (§1) The heterodimerized antibodies He Abs in which one of the H chains was introduced with an alteration were assayed for their binding activities to each activating FcγR and inhibitory FcγR according to the method described in Example 4. […] The activating FcγRs in FIGS. 26, 27, 28, and 29 are FcγRIa, FcγRIIa (R), FcγRIIa (H), and FcγRIIIa, respectively.
(§2) Analysis of interaction between objective antibody and the FcγR was carried out using Biacore T100 (GE Healthcare). HBS-EP+ (GE Healthcare) was used as the running buffer, and the measurement temperature was set to 25° C. Chips produced by immobilizing the antigen peptide by the amine coupling method to a Series S Sencor Chip CM5 (GE Healthcare), or alternatively, chips produced by allowing preliminarily biotinylated antigen peptides to interact with and immobilize onto a Series S Sensor Chip SA (certified) (GE Healthcare) were used. Antibodies of interest were captured onto an antigen peptide-immobilized chip, and allowed to interact to each FcγR diluted with running buffer. To regenerate and repeatedly use the chip, the antibodies captured on the chip were washed off by reacting 10 mM glycine-HCl, pH 1.5.

[3] = biological target: T2, FcγRIIIa extracellular domain with …; test: as above
Description: as §1, §2

| He_3a/2b (IIIa/IIb) [1] [ratio] | He/Con_2b [2] | He/Con_3a [3] | Binder |
| --- | --- | --- | --- |
| 0.49 | 140 % of control | 68.6 % of control | GpH7-A5/GpH7-B3 variant A327_10E/GpL16-k0 (antibody, human IgG1, kappa, Heterodimerized IgG1 antibody; alteration in the GpH7-B3 chain only; also called He Ab) heavy 1: not shown heavy 2: not shown light: DIVMTQSPLSLPVTPGEPASISCQASESLVHSNRNTYLHWYLQKPGQSPQLLIYKVSNRFSGVPDRFSGSGSGTDFTLKISRVEAEDVGVYYCSQNTHVPPTFGQGTKVEIERTVAAPSVFIFPPSDEQLKSGTASVVCLLNNFYPREAKVQWKVDNALQSGNSQESVTEQDSKDSTYSLSSTLTLSKADYEKHKVYACEVTHQGLSSPVTKSFNRGEC |
| 0.77 | 60.8 % of control | 46.8 % of control | GpH7-A5/GpH7-B3 variant A327_15Y/GpL16-k0 (antibody, human IgG1, kappa, Heterodimerized IgG1 antibody; alteration in the GpH7-B3 chain only; also called He Ab) heavy 1: not shown heavy 2: not shown light: DIVMTQSPLSLPVTPGEPASISCQASESLVHSNRNTYLHWYLQKPGQSPQLLIYKVSNRFSGVPDRFSGSGSGTDFTLKISRVEAEDVGVYYCSQNTHVPPTFGQGTKVEIERTVAAPSVFIFPPSDEQLKSGTASVVCLLNNFYPREAKVQWKVDNALQSGNSQESVTEQDSKDSTYSLSSTLTLSKADYEKHKVYACEVTHQGLSSPVTKSFNRGEC |
| 0.46 | 89.4 % of control | 41.4 % of control | GpH7-A5/GpH7-B3 variant A327_14T/GpL16-k0 (antibody, human IgG1, kappa, Heterodimerized IgG1 antibody; alteration in the GpH7-B3 chain only; also called He Ab) heavy 1: not shown heavy 2: not shown light: DIVMTQSPLSLPVTPGEPASISCQASESLVHSNRNTYLHWYLQKPGQSPQLLIYKVSNRFSGVPDRFSGSGSGTDFTLKISRVEAEDVGVYYCSQNTHVPPTFGQGTKVEIERTVAAPSVFIFPPSDEQLKSGTASVVCLLNNFYPREAKVQWKVDNALQSGNSQESVTEQDSKDSTYSLSSTLTLSKADYEKHKVYACEVTHQGLSSPVTKSFNRGEC |
| 0.49 | 172 % of control | 83.7 % of control | GpH7-A5/GpH7-B3 variant A327_09D/GpL16-k0 (antibody, human IgG1, kappa, Heterodimerized IgG1 antibody; alteration in the GpH7-B3 chain only; also called He Ab) heavy 1: not shown heavy 2: not shown light: DIVMTQSPLSLPVTPGEPASISCQASESLVHSNRNTYLHWYLQKPGQSPQLLIYKVSNRFSGVPDRFSGSGSGTDFTLKISRVEAEDVGVYYCSQNTHVPPTFGQGTKVEIERTVAAPSVFIFPPSDEQLKSGTASVVCLLNNFYPREAKVQWKVDNALQSGNSQESVTEQDSKDSTYSLSSTLTLSKADYEKHKVYACEVTHQGLSSPVTKSFNRGEC |

The remaining lines, values behind:

| Binder | He_3a/2b (IIIa/IIb) [1] [ratio] | He/Con_2b [2] | He/Con_3a [3] |
| --- | --- | --- | --- |
| GpH7-A5/GpH7-B3 variant A327_03V/GpL16-k0 (antibody, human IgG1, kappa, Heterodimerized IgG1 antibody; alteration in the GpH7-B3 chain only; also called He Ab) heavy 1: not shown heavy 2: not shown light: DIVMTQSPLSLPVTPGEPASISCQASESLVHSNRNTYLHWYLQKPGQSPQLLIYKVSNRFSGVPDRFSGSGSGTDFTLKISRVEAEDVGVYYCSQNTHVPPTFGQGTKVEIERTVAAPSVFIFPPSDEQLKSGTASVVCLLNNFYPREAKVQWKVDNALQSGNSQESVTEQDSKDSTYSLSSTLTLSKADYEKHKVYACEVTHQGLSSPVTKSFNRGEC | 0.48 | 94.7 % of control | 45.8 % of control |
| GpH7-A5/GpH7-B3 variant A327_04F/GpL16-k0 (antibody, human IgG1, kappa, Heterodimerized IgG1 antibody; alteration in the GpH7-B3 chain only; also called He Ab) heavy 1: not shown heavy 2: not shown light: DIVMTQSPLSLPVTPGEPASISCQASESLVHSNRNTYLHWYLQKPGQSPQLLIYKVSNRFSGVPDRFSGSGSGTDFTLKISRVEAEDVGVYYCSQNTHVPPTFGQGTKVEIERTVAAPSVFIFPPSDEQLKSGTASVVCLLNNFYPREAKVQWKVDNALQSGNSQESVTEQDSKDSTYSLSSTLTLSKADYEKHKVYACEVTHQGLSSPVTKSFNRGEC | 0.72 | 63.7 % of control | 46.2 % of control |
| GpH7-A5/GpH7-B3 variant A327_08L/GpL16-k0 (antibody, human IgG1, kappa, Heterodimerized IgG1 antibody; alteration in the GpH7-B3 chain only; also called He Ab) heavy 1: not shown heavy 2: not shown light: DIVMTQSPLSLPVTPGEPASISCQASESLVHSNRNTYLHWYLQKPGQSPQLLIYKVSNRFSGVPDRFSGSGSGTDFTLKISRVEAEDVGVYYCSQNTHVPPTFGQGTKVEIERTVAAPSVFIFPPSDEQLKSGTASVVCLLNNFYPREAKVQWKVDNALQSGNSQESVTEQDSKDSTYSLSSTLTLSKADYEKHKVYACEVTHQGLSSPVTKSFNRGEC | 0.67 | 63.1 % of control | 42 % of control |
| GpH7-A5/GpH7-B3 variant A327_07I/GpL16-k0 (antibody, human IgG1, kappa, Heterodimerized IgG1 antibody; alteration in the GpH7-B3 chain only; also called He Ab) heavy 1: not shown heavy 2: not shown light: DIVMTQSPLSLPVTPGEPASISCQASESLVHSNRNTYLHWYLQKPGQSPQLLIYKVSNRFSGVPDRFSGSGSGTDFTLKISRVEAEDVGVYYCSQNTHVPPTFGQGTKVEIERTVAAPSVFIFPPSDEQLKSGTASVVCLLNNFYPREAKVQWKVDNALQSGNSQESVTEQDSKDSTYSLSSTLTLSKADYEKHKVYACEVTHQGLSSPVTKSFNRGEC | 0.33 | 127 % of control | 42.4 % of control |
